Test results from patent publication US20170174789A1 (Regeneron, published 2017).
Each block holds one binder with its values, some of them ahead of it.

Columns and labels:
hAng2 = molecular target: T1, hAng2 (human, UniProt O15123 19-496, limits assumed); test: Octet Red biosensor, hTie2.mFc captured on anti-mFc tips, 100 nM angiopoietin for 5 min; some tips first saturated with 300 nM H4H2055N or Control I
T1 construct: Bought protein; also called angiopoietin 2
T1 sequence (looked up): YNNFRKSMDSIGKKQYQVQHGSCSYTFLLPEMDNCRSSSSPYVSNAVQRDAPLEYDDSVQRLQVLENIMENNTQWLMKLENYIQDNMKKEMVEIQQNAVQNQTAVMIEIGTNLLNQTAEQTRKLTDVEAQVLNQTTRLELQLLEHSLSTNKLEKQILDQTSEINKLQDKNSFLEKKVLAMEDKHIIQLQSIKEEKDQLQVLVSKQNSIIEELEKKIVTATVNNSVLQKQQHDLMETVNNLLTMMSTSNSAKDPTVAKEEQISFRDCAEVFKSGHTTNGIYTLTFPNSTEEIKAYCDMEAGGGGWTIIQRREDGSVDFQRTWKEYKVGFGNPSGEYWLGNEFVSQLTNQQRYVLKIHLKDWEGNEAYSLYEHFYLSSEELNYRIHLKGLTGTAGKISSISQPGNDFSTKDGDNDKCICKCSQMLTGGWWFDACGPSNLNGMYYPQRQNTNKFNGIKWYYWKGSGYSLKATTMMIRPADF
Procedure: (§1) A further set of experiments was conducted to evaluate the ability of H4H2055N to block Tie2 binding to Ang2 and other members of the angiopoietin family (Ang1, Ang3 and Ang4). In this set of experiments, an Octet Red biosensor was employed using two experimental formats. In the first format, hTie2.mFc (SEQ ID NO:4; 10 μg/ml) or a negative control was captured on anti-mFc Octet sensor tips for 5 min. The captured sensor tip surfaces were then saturated with H4H2055N or Control I antibody by dipping into wells containing 300 nM of respective monoclonal antibodies for 10 min. Finally the sensor tips were placed into wells containing 100 nM of hAng1 (R&D Systems, Inc., Minneapolis, Minn., Cat 923-AN/CF; Accession #Q5HYA0), hAng2 (R&D Systems, Inc., Minneapolis, Minn., Cat 623-AN/CF; Accession #015123), mAng3 (R&D Systems, Inc., Minneapolis, Minn., Cat 738-AN/CF; Accession #Q9WVH6) or hAng4 (R&D Systems, Inc., Minneapolis, Minn., Cat 964-AN/CF; Accession Q9Y264) for 5 min. Binding response at each step of the experiment was monitored and the binding of different angiopoietins to the monoclonal antibody saturated receptor surfaces was plotted (FIG. 2). As illustrated by FIG. 2, H4H2055N blocked the binding of all four angiopoietins to the hTie2.mFc surface.

mAng3 = molecular target: T2, mAng3 (mouse, UniProt Q9WVH6 22-509, limits assumed); test: as above
T2 construct: Bought protein; also called angiopoietin 3
T2 sequence (looked up): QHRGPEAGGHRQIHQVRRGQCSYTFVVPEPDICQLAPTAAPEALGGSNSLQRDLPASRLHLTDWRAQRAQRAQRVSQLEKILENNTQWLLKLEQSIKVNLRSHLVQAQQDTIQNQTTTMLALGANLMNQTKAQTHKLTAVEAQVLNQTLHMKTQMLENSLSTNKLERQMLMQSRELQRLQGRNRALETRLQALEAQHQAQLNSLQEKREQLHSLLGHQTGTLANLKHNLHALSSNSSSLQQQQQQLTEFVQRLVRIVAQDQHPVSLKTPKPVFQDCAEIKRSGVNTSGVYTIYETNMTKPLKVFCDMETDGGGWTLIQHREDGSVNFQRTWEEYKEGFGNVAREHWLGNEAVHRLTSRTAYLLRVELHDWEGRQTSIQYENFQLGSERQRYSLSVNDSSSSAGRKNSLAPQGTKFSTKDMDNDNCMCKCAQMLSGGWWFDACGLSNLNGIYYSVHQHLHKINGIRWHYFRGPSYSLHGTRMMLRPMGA
Procedure: as §1

hAng4 = molecular target: T3, hAng4 (human, UniProt Q9Y264 25-503, limits assumed); test: as above
T3 construct: Bought protein; also called angiopoietin 4
T3 sequence (looked up): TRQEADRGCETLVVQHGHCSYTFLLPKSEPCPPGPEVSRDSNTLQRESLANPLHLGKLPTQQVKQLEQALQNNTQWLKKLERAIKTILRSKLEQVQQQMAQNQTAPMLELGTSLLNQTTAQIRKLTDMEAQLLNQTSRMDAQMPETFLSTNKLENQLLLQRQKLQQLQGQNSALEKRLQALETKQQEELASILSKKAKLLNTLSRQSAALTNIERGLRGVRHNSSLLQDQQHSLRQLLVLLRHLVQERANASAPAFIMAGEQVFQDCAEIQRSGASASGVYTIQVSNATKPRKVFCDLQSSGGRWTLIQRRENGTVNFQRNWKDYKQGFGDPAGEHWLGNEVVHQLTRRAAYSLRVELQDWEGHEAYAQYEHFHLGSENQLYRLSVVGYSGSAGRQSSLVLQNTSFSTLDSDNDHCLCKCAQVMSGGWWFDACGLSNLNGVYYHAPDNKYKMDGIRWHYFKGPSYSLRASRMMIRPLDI
Procedure: as §1

hTie2 (EGF) = molecular target: T4, hTie2 (EGF) (human, UniProt Q02763 210-344); test: Luminex bead binding
T4 construct: Domain-deletion construct linked to Luminex beads
Procedure: (§2) For binding, 25 μl of anti-Tie2 antibody (25 μg/ml) was added to 75 μl of the above created Luminex bead mixture (3×10³ beads per construct) in binding buffer (PBS, 0.05% Tween 20, 1 mg/ml BSA, 0.05% sodium azide) into a 96 well filter plate (Millipore). Incubation was at room temperature (RT) for 90 min or overnight at 4° C. with shaking. The beads were washed 3× with washing buffer (PBS+0.05% Tween 20) resuspended in 100 μl binding buffer containing PE (phycoerythrine)-labeled anti human kappa or PE-labeled anti mouse Fab secondary antibody and incubated at RT for 45 min with shaking. Samples were washed 2× more and binding signal (MFI) for each bead was determined using a Luminex L200 or FLEXMAP3D instrument. Bead linked human Tie2 was used as positive control and bead linked human Tie1 was used to measure family cross-reactivity. In general MFI signals greater than 500 units represent significant binding.

hTie2 (Ig1-Ig2-EGF) = molecular target: T5, hTie2 (Ig1-Ig2-EGF) (human, UniProt Q02763 24-344); test: Luminex bead binding
T5 construct: Domain-deletion construct; also used for H/D exchange
Procedure: as §2

hTie2 (Ig2-EGF) = molecular target: T6, hTie2 (Ig2-EGF) (human, UniProt Q02763 121-344); test: Luminex bead binding
T6 construct: Domain-deletion construct linked to Luminex beads
Procedure: as §2

[1] = molecular target: hTie2 on 293-Tie2/SRE-Luc cells (human, UniProt Q02763 23-1124); test: cell-based or functional assay
mTie2-hFc = molecular target: T7, mTie2-hFc (mouse); test: SPR Biacore 25C, mAb captured
T7 construct: also called mouse Tie2
Procedure: (§3) (Tables 3-6). Measurements were conducted on a Biacore 2000 or T200 instrument.
(§4) For antibodies with a mouse constant region (designated H1M or H2M), antibodies were immobilized onto an anti-mouse Fc sensor surface and different concentrations of human, mouse or rat Tie2 constructs (hTie2-His, mTie2-hFc and rTie2-hFc) were injected over the antibody captured surface. For antibodies in the human IgG format (designated H1H or H4H), either an anti-human Fc sensor surface (hTie2-His and hTie2-mFc) or anti-human Fab sensor surface (mTie2-hFc and rTie2-hFc) was employed depending on the Tie-2 construct applied to the antibody captured surface. Amino acid sequences of the constructs used in this Example are as follows: hTie2-His (SEQ ID NO:2); hTie2-hFc (SEQ ID NO:3); hTie2-mFc (SEQ ID NO:4); rTie2-hFc (SEQ ID NO:5); and mTie2-hFc (SEQ ID NO:6).
(§5) Kinetic rate constants—association rate (ka) and dissociation rate (kd) were determined by fitting the real time binding sensorgrams to a 1:1 binding model with mass transport limitation using Scrubber 2.0 curve fitting software. The equilibrium dissociation constant (KD) and dissociative half-life (T½) were calculated from the kinetic rate constants as: KD (M)=kd/ka; and T½ (min)=(In2/(60*kd).).

rTie2-hFc = molecular target: T8, rTie2-hFc (rat); test: SPR Biacore 25C, mAb captured
T8 construct: also called rat Tie2
Procedure: as §3, §4, §5

T8 sequence (chain, as listed by the source limits assumed): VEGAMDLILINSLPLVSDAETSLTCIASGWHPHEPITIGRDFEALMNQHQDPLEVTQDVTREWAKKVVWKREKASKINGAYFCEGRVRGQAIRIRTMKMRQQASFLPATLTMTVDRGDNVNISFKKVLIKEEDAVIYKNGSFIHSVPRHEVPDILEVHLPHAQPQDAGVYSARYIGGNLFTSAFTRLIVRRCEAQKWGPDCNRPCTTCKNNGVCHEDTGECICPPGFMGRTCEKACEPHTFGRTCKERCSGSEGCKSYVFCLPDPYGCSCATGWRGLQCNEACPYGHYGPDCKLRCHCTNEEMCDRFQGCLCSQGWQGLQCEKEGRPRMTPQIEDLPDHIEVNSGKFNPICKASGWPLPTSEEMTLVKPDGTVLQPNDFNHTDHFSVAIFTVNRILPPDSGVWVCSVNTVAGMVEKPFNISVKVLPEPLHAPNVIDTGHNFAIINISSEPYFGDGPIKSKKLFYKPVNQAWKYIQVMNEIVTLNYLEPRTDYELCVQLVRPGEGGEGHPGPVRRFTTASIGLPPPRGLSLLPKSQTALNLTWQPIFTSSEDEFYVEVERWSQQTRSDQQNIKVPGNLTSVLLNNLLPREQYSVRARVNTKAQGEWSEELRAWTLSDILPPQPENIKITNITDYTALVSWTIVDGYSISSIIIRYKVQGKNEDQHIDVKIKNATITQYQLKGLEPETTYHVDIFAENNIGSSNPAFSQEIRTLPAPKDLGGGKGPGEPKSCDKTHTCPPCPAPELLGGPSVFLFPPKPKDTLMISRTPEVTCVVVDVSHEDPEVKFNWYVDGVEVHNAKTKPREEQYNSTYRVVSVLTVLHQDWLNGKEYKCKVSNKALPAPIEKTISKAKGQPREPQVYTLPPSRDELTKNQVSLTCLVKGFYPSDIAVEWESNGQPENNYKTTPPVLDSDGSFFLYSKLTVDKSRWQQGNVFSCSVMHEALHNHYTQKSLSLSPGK
T4 sequence (Q02763 other isoform, or with tags, fused parts or gaps limits assumed): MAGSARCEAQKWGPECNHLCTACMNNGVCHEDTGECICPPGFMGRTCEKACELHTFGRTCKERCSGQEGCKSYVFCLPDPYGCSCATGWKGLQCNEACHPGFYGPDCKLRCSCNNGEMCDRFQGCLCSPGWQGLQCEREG
T6 sequence (Q02763 other isoform, or with tags, fused parts or gaps limits assumed): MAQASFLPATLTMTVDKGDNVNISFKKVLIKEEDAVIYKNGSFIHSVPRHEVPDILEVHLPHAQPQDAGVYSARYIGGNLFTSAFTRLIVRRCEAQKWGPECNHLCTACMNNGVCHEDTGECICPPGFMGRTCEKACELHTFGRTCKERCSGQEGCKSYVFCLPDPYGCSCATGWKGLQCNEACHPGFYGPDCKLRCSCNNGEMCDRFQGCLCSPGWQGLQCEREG

binding result (hAng2): binds | binding result (mAng3): binds | binding result (hAng4): binds
B1: hTie2-mFc (Fc fusion)
chain: AMDLILINSLPLVSDAETSLTCIASGWRPHEPITIGRDFEALMNQHQDPLEVTQDVTREWAKKVVWKREKASKINGAYFCEGRVRGEAIRIRTMKMRQQASFLPATLTMTVDKGDNVNISFKKVLIKEEDAVIYKNGSFIHSVPRHEVPDILEVHLPHAQPQDAGVYSARYIGGNLFTSAFTRLIVRRCEAQKWGPECNHLCTACMNNGVCHEDTGECICPPGFMGRTCEKACELHTFGRTCKERCSGQEGCKSYVFCLPDPYGCSCATGWKGLQCNEACHPGFYGPDCKLRCSCNNGEMCDRFQGCLCSPGWQGLQCEREGIPRMTPKIVDLPDHIEVNSGKFNPICKASGWPLPTNEEMTLVKPDGTVLHPKDFNHTDHFSVAIFTIHRILPPDSGVWVCSVNTVAGMVEKPFNISVKVLPKPLNAPNVIDTGHNFAVINISSEPYFGDGPIKSKKLLYKPVNHYEAWQHIQVTNEIVTLNYLEPRTEYELCVQLVRRGEGGEGHPGPVRRFTTASIGLPPPRGLNLLPKSQTTLNLTWQPIFPSSEDDFYVEVERRSVQKSDQQNIKVPGNLTSVLLNNLHPREQYVVRARVNTKAQGEWSEDLTAWTLSDILPPQPENIKISNITHSSAVISWTILDGYSISSITIRYKVQGKNEDQHVDVKIKNATIIQYQLKGLEPETAYQVDIFAENNIGSSNPAFSHELVTLPESQAPADLGGGKGPGEPRGPTIKPCPPCKCPAPNLLGGPSVFIFPPKIKDVLMISLSPIVTCVVVDVSEDDPDVQISWFVNNVEVHTAQTQTHREDYNSTLRVVSALPIQHQDWMSGKEFKCKVNNKDLPAPIERTISKPKGSVRAPQVYVLPPPEEEMTKKQVTLTCMVTDFMPEDIYVEWTNNGKTELNYKNTEPVLDSDGSYFMYSKLRVEKKNWVERNSYSCSVVHEGLHNHHTTKSFSRTPGK

EC50, Tie2 dependent luciferase activity, 293-Tie2/SRE-Luc cells with 1 nM BowAng1 [1]: 2.5 nM | EC50, Tie2 dependent luciferase activity, 293-Tie2/SRE-Luc cells with 1 nM BowAng2 [1]: 3.7 nM | Kd (mTie2-hFc): 107 nM | T½ (mTie2-hFc): 2 min | koff (mTie2-hFc): 0.00576 s⁻¹ | kon (mTie2-hFc): 53900 M⁻¹ s⁻¹ | Kd (rTie2-hFc): 55.3 nM | T½ (rTie2-hFc): 2 min | koff (rTie2-hFc): 0.00618 s⁻¹ | kon (rTie2-hFc): 112000 M⁻¹ s⁻¹
B2: H1H2332B (antibody, V domains shown)
VH: QVQLQESGPGLVKPSETLSLTCTVSGASISSYYWTWFRQPPGQGLEWIGYIYYSGSTNYNPSLKSRVTISVDTSMNQFSLKLTSVTAADTAVYYCARQGGYTSSLFDYWGQGTLVTVSS
VL: DIQMTQSPSSLSASVGDRVTITCRASQSISSYLNWYQQKPGKAPKLLIYVVSSLQSGVPSRFSGSGSGTDFTLTISSLQPEDFATYYCQQSYSIPWTFGQGTKVEIK
notes: Tested as H1H2332B (human IgG format, H1H prefix)
binding result (hTie2 (EGF)): no binding (tested: MFI >500 = significant binding) | binding result (hTie2 (Ig1-Ig2-EGF)): no binding (tested: MFI >500 = significant binding) | binding result (hTie2 (Ig2-EGF)): no binding (tested: MFI >500 = significant binding)
